Measured values reported in US20250186614A1, “COMPACT DRUG RESPONSIVE DOMAINS FOR REGULATION OF FUNCTION/ABUNDANCE AND DELIVERY OF POLYPEPTIDE PAYLOADS” (OBSIDIAN THERAPEUTICS, INC., priority 2022, published 2025).
Changes are numbered by the printed parent chain. In names and notes the source's numbering stands. Read-outs that look alike come from different tables or passages of the source.

B1: FKBP-117: FKBP13 DRD Q72R, Q84E, A117W, V85R; SEQ ID NO: 67 (protein)
chain: HCPIKSRKGDVLHMHYTGKLEDGTEFDSSLPRNQPFVFSLGTGERIKGWDQGLLGMCEGEKRKLVIPSELGYGERGWPPKIPGGATLVFEVELLKIER
modifications: Description of sequence: FKBP13-AcGFP-mCherry Fusion; Construct Name: FKBP-117; FKBP13 DRD in Construct : FKBP13 (mutated to match FKBP12 active site Q72R Q84E A117W) (DRD V85R)
B2: FKBP-167: FKBP13 DRD-AcGFP construct of Table 10 (protein)
chain: B1 chain with M14A, S39W, E44R
modifications: Description of sequence: Construct Name: FKBP-167; Mutation(s): Q72R S79W Q84R A117W DRD M54A V85R
B3: FKBP-152: FKBP13 DRD Q72R, Q84W, A117W, M54A; SEQ ID NO: 102 (protein)
chain: B1 chain with M14A, E44W, R45V
modifications: Description of sequence: FKBP13-AcGFP-mCherry Fusion; Construct Name: FKBP-152; FKBP13 DRD in Construct : FKBP13 (mutated to match FKBP12 active site Q72R Q84W A117W) (DRD M54A)
B4: FKBP-151: FKBP13 DRD Q72R, Q84R, A117W, M54A; SEQ ID NO: 101 (protein)
chain: B1 chain with M14A, E44R, R45V
modifications: Description of sequence: FKBP13-AcGFP-mCherry Fusion; Construct Name: FKBP-151; FKBP13 DRD in Construct : FKBP13 (mutated to match FKBP12 active site Q72R Q84R A117W) (DRD M54A)
B5: FKBP-166 (protein)
chain: B1 chain with M14A, S39W
modifications: Description of sequence: Construct Name: FKBP-166; Mutation(s): Q72R S79W Q84E A117W DRD M54A V85R
B6: FKBP-158: FKBP13 DRD Q72R, Q84E, A117W, M54A G111E; SEQ ID NO: 108 (protein)
chain: B1 chain with M14A, R45V, G71E
modifications: Description of sequence: FKBP13-AcGFP-mCherry Fusion; Construct Name: FKBP-158; FKBP13 DRD in Construct : FKBP13 (mutated to match FKBP12 active site Q72R Q84E A117W) (DRD M54A G111E)
B7: FKBP-159: FKBP13 DRD Q72R, Q84E, A117W, M54A G111Y; SEQ ID NO: 109 (protein)
chain: B1 chain with M14A, R45V, G71Y
modifications: Description of sequence: FKBP13-AcGFP-mCherry Fusion; Construct Name: FKBP-159; FKBP13 DRD in Construct : FKBP13 (mutated to match FKBP12 active site Q72R Q84E A117W) (DRD M54A G111Y)
B8: FKBP-156: FKBP13 DRD Q72R, T82W, Q84W, A117W, M54A; SEQ ID NO: 106 (protein)
chain: B1 chain with M14A, T42W, E44W, R45V
modifications: Description of sequence: FKBP13-AcGFP-mCherry Fusion; Construct Name: FKBP-156; FKBP13 DRD in Construct : FKBP13 (mutated to match FKBP12 active site Q72R T82W Q84W A117W) (DRD M54A)
B9: FKBP-154: FKBP13 DRD Q72R, S79W, Q84W, A117W, M54A; SEQ ID NO: 104 (protein)
chain: B1 chain with M14A, R45V
modifications: Description of sequence: FKBP13-AcGFP-mCherry Fusion; Construct Name: FKBP-154; FKBP13 DRD in Construct : FKBP13 (mutated to match FKBP12 active site Q72R S79W Q84W A117W) (DRD M54A)

Tests used:
Type in all cases: cell-based
[1] = test system: Jurkat cells; assay: Tacrolimus dose response of FKBP13-AcGFP-mCherry constructs stably transduced into Jurkat cells, GFP MFI by flow cytometry; set-up: Basal: unit not given here; details: for EC90 / Tacrolimus FC: Table 14; for Fold Change: Jurkat cells stably transduced; for Tacrolimus FC: fold change
Procedure, shortened: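 Jurkat E6-1 cells lentivirally transduced with FKBP13-AcGFP-mCherry constructs to 10-25% mCherry+ (day 5) were dosed with tacrolimus. GFP geometric MFI in mCherry+ cells was measured by flow cytometry and fitted to dose-response curves.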

[2] = test system: Jurkat cells; assay: Sirolimus (rapamycin) dose response of FKBP13 constructs stably transduced into Jurkat cells, flow cytometry; details: for Fold Change: rapamycin (sirolimus), Jurkat cells stably transduced, Table 8; for EC90 / Rapamycin FC: rapamycin, Table 14; for Rapamycin FC: fold change; for EC50 (tacrolimus)/ EC50 (rapamycin): ratio of Table 7 and Table 8 EC50 values; for EC50 (tacrolimus)/ EC50 (rapamycin) / Fold change (tacrolimus)/ Fold change (rapamycin): Jurkat cells; for Fold change (tacrolimus)/ Fold change (rapamycin): ratio of Table 7 and Table 8 fold changes
Experimental: Normalized EC50 values were calculated from the mCherry normalized GFP MFI values, which accounted for any differences in mCherry intensity between samples.

[3] = Example 4: dose response of FKBP constructs 160-255, Ec50, Ec90 and fold change (raw and normalized to mCherry); details: for FC (fold change): fold change during initial analysis
Experimental: Additional experiments were performed for constructs FKBP-160-292.

[4] = read-out: Tacrolimus EC90 (Norm), tacrolimus, normalized
[5] = read-out: Tacrolimus EC90, tacrolimus
[6] = normalized, read-out: Rapamycin EC90 (Norm)
[7] = FKBP constructs 160-255, not normalized, read-out: EC90
[8] = normalized to mCherry, read-out: EC90 (Norm)

Row | Molecule | EC90 [1, 4] [nM] | EC90 [1, 5] [nM] | Fold Change ([1]; tacrolimus, Table 7) | Tacrolimus FC ([1]; tacrolimus) | Fold Change [2] | EC90 ([2]; read-out: Rapamycin EC90) [nM] | Rapamycin FC [2] | EC90 [2, 6] [nM] | EC50 (tacrolimus)/ EC50 (rapamycin) [2] | Fold change (tacrolimus)/ Fold change (rapamycin) [2] | other results
1 | B1 | 27.2 | 25 | 18.6 | 21.2 | 6.9 | 170 | 7.6 | 171 | 0.20 | 2.70 | Fold Change ([1]; tacrolimus, Table 6): 15.75; FC ([1]; tacrolimus, FIG. 35): 24.07; Peak ([1]; tacrolimus, FIG. 35): 5193; FC ([1]; tacrolimus, FIG. 36): 24.07; Peak ([1]; tacrolimus, FIG. 36): 5193; FC ([1]; tacrolimus, FIG. 37): 24.07; Peak ([1]; tacrolimus, FIG. 37): 5193; FC ([1]; tacrolimus, FIG. 38): 24.07; Peak ([1]; tacrolimus, FIG. 38): 5193
2 | B2 | 334 | 348 | – | 46.8 | – | 1720 | 11.3 | 1710 | – | – | Basal ([1]; FIG. 44): 96; FC ([1]; FIG. 44): 47.22; At 10 uM ([1]; FIG. 44, at 10 uM): 4533; EC90 [3, 7]: 348 nM; FC (fold change) [3]: 46.8; EC90 [3, 8]: 334 nM
3 | B3 | – | – | 30.34 | – | 23.17 | – | – | – | 0.55 | 1.31 | –
4 | B4 | – | – | 42.03 | – | 10.15 | – | – | – | 0.91 | 4.14 | –
5 | B5 | 223 | 220 | – | 46 | – | 1640 | 15.7 | 1580 | – | – | EC90 [3, 7]: 220 nM; FC (fold change) [3]: 46.0; EC90 [3, 8]: 223 nM
6 | B6 | – | – | 1.25 | – | 0.84 | – | – | – | – | 1.49 | –
7 | B7 | – | – | 1.06 | – | 0.81 | – | – | – | 1.22 | 1.31 | –
8 | B8 | – | – | 18.36 | – | 8.77 | – | – | – | 0.56 | 2.09 | –
9 | B9 | – | – | 14 | – | 3.9 | – | – | – | 0.35 | 3.59 | –
